Data published in patent publication US20090220476A1 (CELLECTIS, published 2009).
Where a chain is given by its changes, count along the chain named.

Tests used:
[1] = biological target: T1, I-CreI Q44, A68, N70, N75, P05725
T1 chain: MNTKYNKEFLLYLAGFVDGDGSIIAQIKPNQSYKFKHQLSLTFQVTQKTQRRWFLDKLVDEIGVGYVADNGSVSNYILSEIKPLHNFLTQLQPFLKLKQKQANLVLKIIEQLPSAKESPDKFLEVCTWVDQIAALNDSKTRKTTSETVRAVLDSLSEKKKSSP

[2] = biological target: T2, I-CreI combinatorial mutant NNSRK/ARR, P05725
T2 chain: T1 chain with K28N, Y33S, Q38R, S40K, Q44A, A68R, N70R

[3] = biological target: the molecule itself; test: far-UV CD, 1H-NMR and analytical ultracentrifugation of purified protein; self-association (homodimer)
Procedure: Novel I-CreI variants were expressed, purified, and analyzed for in vitro cleavage as reported previously (Arnould et al., precited). Circular dichroism (CD) measurements were performed on a Jasco J-810 spectropolarimeter using a 0.2 cm path length quartz cuvette. Equilibrium unfolding was induced increasing temperature at a rate of 1° C./min (using a programmable Peltier thermoelectric). Samples were prepared by dialysis against 25 mM potassium phosphate buffer, pH 7.5, at protein concentrations of 20 μM.
Finally, analysis of the structure and stability of this group of combinatorial mutants was performed using far-UV CD (FIG. 19d), ¹H-NMR and analytical ultracentrifugation. […] Thus, the two sets of residues that were mutated, K28, N30, Y33, Q38 and S40 on one hand, Q44, R68 and R70 on the other, define two relatively independent DNA binding sub-domains.

[4] = biological target: T3, I-CreI combinatorial mutant NNSRK/ASR, P05725
T3 chain: T1 chain with K28N, Y33S, Q38R, S40K, Q44A, A68S, N70R

B1: I-CreI K44, T68, G70, N75 (protein)
chain: T1 chain with Q44K, A68T, N70G
- cleavage of chimeric DNA targets gtt/gcc and gtt/cct (yeast LacZ recombination assay, co-expression) [1]: co-expression of the K44, T68, G70, N75 (KTG) and Q44, A68, N70, N75 (QAN) mutants resulted in the cleavage of two chimeric targets, gtt/gcc and gtt/cct, that were not cleaved by either mutant alone

B2: I-CreI combinatorial mutant KNHQS/KAS (enzyme, UniProt P05725 1-163, looked up)
chain: T1 chain with Y33H, Q44K, N70S
notes: The scaffold ORF has three additional C-terminal codons (AAD)
- in vitro cleavage of the COMB1 target by purified proteins incubated together [2]: Cleavage of the COMB1 target was also detected in vitro when the KNHQS/KAS and NNSRK/ARR purified proteins were incubated together with the COMB1 target in our conditions, while incubation of single protein did not give rise to any detectable cleavage activity. However, the cleavage efficiency was e
- binding result [3]: binds

B3: I-CreI combinatorial mutant NNSRK/ASR (enzyme, UniProt P05725 1-163, looked up)
chain: T1 chain with K28N, Y33S, Q38R, S40K, Q44A, A68S, N70R
notes: as for B2
- binding result [3]: binds

B4: I-CreI combinatorial mutant NNSRK/ARR (enzyme, UniProt P05725 1-163, looked up)
chain: T1 chain with K28N, Y33S, Q38R, S40K, Q44A, A68R, N70R
notes: as for B2
- binding result [3]: binds

B5: I-CreI combinatorial mutant QNRQR/KEG (protein)
chain: T1 chain with K28Q, Y33R, S40R, Q44K, A68E, N70G
- cleavage of the chimeric site COMB1 (yeast LacZ recombination assay, co-expression) [4]: co-expression resulted in cleavage of the chimeric sequence COMB1 among all tested heterodimers (QNRQR/KEG×NNSRK/ASR named as the example with the weaker activity)

B6: I-CreI combinatorial mutant KNHQS/KEG (enzyme, UniProt P05725 1-163, looked up)
chain: T1 chain with Y33H, Q44K, A68E, N70G
notes: as for B2
- cleavage of the chimeric site COMB1 (yeast LacZ recombination assay, co-expression) [2]: co-expression resulted in cleavage of the chimeric sequence COMB1 among all tested heterodimers (KNHQS/KEG×NNSRK/ARR named as the example with the higher level of activity)
- binding result [3]: binds
